This is an account of results in patent publication US20150038408A1 (University of Washington, published 2015).

Like-named read-outs stand apart in the source and are kept apart here.

Test [1] deals with T1, A/South Carolina/1/1918 (H1N1) hemagglutinin ectodomain (Influenza A virus A/South …).
Test [2] addresses T1, A/South Carolina/1/1918 (H1N1) …. The source holds these as a separate data set.
The target is the same in test [3]. The source holds these as a separate data set.
The target is the same in test [4]. The source holds these as a separate data set.

For orientation: Kd means a measure of binding affinity in units of concentration. The low end stands for higher affinity, the high end for lower affinity.

B1: HB36.1 (Asp47Ser) (designed binder)
chain: MSNAMDGQQLNRLLLEWIGAWDPFGLGKDAYDVEAEAVLQAVYETESAFDLAMRIMWIYAFAFNRPIPFPHAQKLARRLLELKQAASSPLPLE
As for B1, the equilibrium dissociation constant (Kd) in test [1] was 5 nM; in test [2], 2 to 5 nM. The “fold increase in binding affinity against HB36” value in test [3] was roughly 40 fold.

B2: HB80.1 (Met26Thr, Asn36Lys) (designed binder)
chain: MASTRGSGRPWDFSENLAFELALAFTNKDTPDRWAKVAQYVSGRTPEEVKKHYEILVEDIKYIESGKVPFPNYRTTGGNMKTDEKRFRNLKIRLE
Take B2: the Kd in test [1] and in test [4] was 7.5 nM in each case.
